Source: article PMC4244197 (Molecular Biology of the Cell, 2014)

Molecular target: T1, GST-17NAnk (GST-tagged N-terminal cytosolic domain of zDHHC17, amino acids 11-305) (mouse, UniProt Q80TN5-1 11-305)
T1 sequence (looked up): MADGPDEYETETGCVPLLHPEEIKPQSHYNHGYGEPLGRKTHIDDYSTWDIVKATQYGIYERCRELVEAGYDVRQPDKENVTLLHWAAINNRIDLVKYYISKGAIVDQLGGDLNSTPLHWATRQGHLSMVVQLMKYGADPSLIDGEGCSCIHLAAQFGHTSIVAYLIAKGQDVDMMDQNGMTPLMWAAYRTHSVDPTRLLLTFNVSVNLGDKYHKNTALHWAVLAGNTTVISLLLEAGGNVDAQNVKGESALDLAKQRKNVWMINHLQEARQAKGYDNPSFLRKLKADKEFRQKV
Experiment: pull-down

B1: Myc-tagged CSP, palmitoylated (p) (natural protein, UniProt Q29455 1-198, looked up)
chain: MADQRQRSLSTSGESLYHVLGLDKNATSDDIKKSYRKLALKYHPDKNPDNPEAADKFKEINNAHAILTDATKRNIYDKYGSLGLYVAEQFGEENVNTYFVLSSWWAKALFIFCGLLTCCYCCCCLCCCFNCCCGKCKPKAPEGEETEFYVSPEDLEAQLQSDEREAADTPIVIQPASATETTQLTADSHPSYHTDGFN
modifications: palmitoylated (S-acylated) cysteines, positions not given
  fold lower binding than nonpalmitoylated Myc-CSP: 6 fold
